These results are taken from US10766960 (dated 2020).

Common to all, as to test: SPR
The target of one assay is FcgRIIIa V (human, UniProt P08637).
The target in another assay is T1, FcgRIa (human, UniProt P12314).
T1 chain: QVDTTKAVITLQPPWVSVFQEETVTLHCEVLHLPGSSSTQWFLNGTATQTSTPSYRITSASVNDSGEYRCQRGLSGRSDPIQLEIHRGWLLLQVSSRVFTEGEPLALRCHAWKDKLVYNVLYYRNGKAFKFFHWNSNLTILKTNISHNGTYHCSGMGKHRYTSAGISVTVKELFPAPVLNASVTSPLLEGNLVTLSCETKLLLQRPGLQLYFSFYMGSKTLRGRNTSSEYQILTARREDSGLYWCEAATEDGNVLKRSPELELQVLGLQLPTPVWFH

The next assay has as its target T2, FcgRIIa R (human, UniProt P12318).
T2 chain: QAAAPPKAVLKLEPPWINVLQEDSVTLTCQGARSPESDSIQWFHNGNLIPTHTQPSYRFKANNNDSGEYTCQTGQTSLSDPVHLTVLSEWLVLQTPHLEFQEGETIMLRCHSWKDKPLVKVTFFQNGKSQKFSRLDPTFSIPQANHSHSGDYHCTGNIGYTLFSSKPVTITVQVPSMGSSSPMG

Another assay concerns the target T3, FcgRIIa H (human, UniProt P12318).
T3 chain: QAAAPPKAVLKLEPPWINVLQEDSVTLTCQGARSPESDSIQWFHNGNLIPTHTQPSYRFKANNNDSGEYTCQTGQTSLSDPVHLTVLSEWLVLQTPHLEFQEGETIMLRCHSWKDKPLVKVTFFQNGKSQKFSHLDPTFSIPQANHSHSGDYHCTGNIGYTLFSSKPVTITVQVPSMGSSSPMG

For the next assay, the target named is T4, FcgRIIb (human, UniProt P31994).
T4 chain: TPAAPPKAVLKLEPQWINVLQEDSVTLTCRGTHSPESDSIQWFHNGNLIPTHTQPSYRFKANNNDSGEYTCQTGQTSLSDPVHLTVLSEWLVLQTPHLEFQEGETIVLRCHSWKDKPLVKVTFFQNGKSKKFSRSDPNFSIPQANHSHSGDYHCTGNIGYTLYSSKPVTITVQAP

A further assay deals with FcgRIIIa F (human, UniProt P08637).
Sequence of FcgRIIIa F (P08637 17-208): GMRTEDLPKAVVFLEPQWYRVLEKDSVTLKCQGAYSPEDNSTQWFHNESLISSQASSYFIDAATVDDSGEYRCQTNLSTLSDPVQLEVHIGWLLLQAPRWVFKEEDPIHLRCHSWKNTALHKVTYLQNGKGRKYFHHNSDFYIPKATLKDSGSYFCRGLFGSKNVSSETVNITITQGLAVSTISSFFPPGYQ

Sequence of FcgRIIIa V (P08637 17-208 F176V): as the sequence (P08637 17-208) above, with F160V counted along it

B1: H240-FA021/H240-FB082/L73-k0 (antibody)
chain 1: QDQLVQSGAEVKKPGASVKVSCKASGFNIKDTYIQWVRQAPGQGLEWMGRIDPLRKQTKYREKFEGRVTITADTSTNTAYMELSSLRSEDTAVYYCVRSGREFDYWGQGTLVTVSSASTKGPSVFPLAPSSKSTSGGTAALGCLVKDYFPEPVTVSWNSGALTSGVHTFPAVLQSSGLYSLSSVVTVPSSSLGTKTYTCNVNHKPSNTKVDKKVEPKSCDKTHTCPPCPAPEYYWGPSVFLFPPKPKDTLMISRTPEVTCVVVDVSDEEPEVKFNWYVDGVEVHNAKTKPREEQYNATYRVVSVLTVLHQDWLNGKEYKCKVSNKALPAPIEKTISKAKGQPREPQVYTLPPSRKEKTKNQVSLTCLVKGFYPSDIAVEWESNGQPENNYKTTPPKLDSDGSFFLYSKLTVDKSRWQQGNVFSCSVMHEALHNRYTQKSLSLSP
chain 2: QDQLVQSGAEVKKPGASVKVSCKASGFNIKDTYIQWVRQAPGQGLEWMGRIDPLRKQTKYREKFEGRVTITADTSTNTAYMELSSLRSEDTAVYYCVRSGREFDYWGQGTLVTVSSASTKGPSVFPLAPSSKSTSGETAALGCLVEDYFPEPVTVSWNSGALTSGVHTFPAVLQSSGLYSLSSVVTVPSSSLGTQTYICNVNHKPSNTKVDKKVEPKSCDKTHTCPPCPAPELLGGPSVFLFPPKPKDTLMISRTPEVTCVVVDVSHEEPEVQFNWYVDGVEVHNAETKPREEQYNSTYRVVSVLTVLHQDWLNGKEYKCKVSNDALPMPIEETISKAKGQPREPQVYTLPPSREEMTKNQVSLTCLVKGFYPSDIAVEWESEGQPENNYKTTPPVLDSDGSFFLYSKLTVDKSRWQQGNVFSCSVMHEALHNHYTQESLSLSP
chain 3: DIQMTQSPSSLSASVGDRVTITCRASQDIHKYIAWYQQKPGQAPRLLIQYTSTLQPGVPSRFSGSGSGTDYTFTISSLQPEDIATYYCLQYEQLRTFGGGTKVEIKRTVAAPSVFIFPPSDEQLKSGTASVVCLLNNFYPREAKVQWKVDNALQSGNSQESVTEQDSKDSTYSLSSTLTLSKADYEKHKVYACEVTHQGLSSPVTKSFNRGEC
As to B1, the Kd – broadly, the free concentration of one partner at which half of the binding sites on the other are occupied at equilibrium, for simple one-to-one binding – with FcgRIIIa V is 1.5 nM; with FcgRIa, 0.06 nM; in the assay with FcgRIIa R, 230 nM; with FcgRIIa H, 77 nM; in the assay with FcgRIIb, 1600 nM; with FcgRIIIa F it was 4.2 nM.

B2: H240-FA012/H240-FB001/L73-k0 (antibody)
chain 1: QDQLVQSGAEVKKPGASVKVSCKASGFNIKDTYIQWVRQAPGQGLEWMGRIDPLRKQTKYREKFEGRVTITADTSTNTAYMELSSLRSEDTAVYYCVRSGREFDYWGQGTLVTVSSASTKGPSVFPLAPSSKSTSGGTAALGCLVKDYFPEPVTVSWNSGALTSGVHTFPAVLQSSGLYSLSSVVTVPSSSLGTKTYICNVNHKPSNTKVDKKVEPKSCDKTHTCPPCPAPEYYWGPSVFLFPPKPKDTLMISRTPEVTCVVVDVSDEEPKVKFNWYVDGVEVHNAKTKPREEQYNATYRVVSVLTVLHQDWLNGKEYKCKVSNKALPAPIEKTISKAKGQPREPQVYTLPPSRKEMTKNQVSLTCLVKGFYPSDIAVEWESNGQPENNYKTTPPVLDSDGSFFLYSKLTVDKSRWQQGNVFSCSVMHEALHNRYTQKSLSLSP
chain 2: QDQLVQSGAEVKKPGASVKVSCKASGFNIKDTYIQWVRQAPGQGLEWMGRIDPLRKQTKYREKFEGRVTITADTSTNTAYMELSSLRSEDTAVYYCVRSGREFDYWGQGTLVTVSSASTKGPSVFPLAPSSKSTSGGTAALGCLVKDYFPEPVTVSWNSGALTSGVHTFPAVLQSSGLYSLSSVVTVPSSSLGTQTYICNVNHKPSNTKVDKKVEPKSCDKTHTCPPCPAPELLGGPSVFLFPPKPKDTLMISRTPEVTCVVVDVSHEEPEVQFNWYVDGVEVHNAKTKPREEQYNSTYRVVSVLTVLHQDWLNGKEYKCKVSNDALPMPIEETISKAKGQPREPQVYTLPPSREEMTKNQVSLTCLVKGFYPSDIAVEWESNGQPENNYKTTPPVLDSDGSFFLYSKLTVDKSRWQQGNVFSCSVMHEALHNHYTQESLSLSP
chain 3: DIQMTQSPSSLSASVGDRVTITCRASQDIHKYIAWYQQKPGQAPRLLIQYTSTLQPGVPSRFSGSGSGTDYTFTISSLQPEDIATYYCLQYEQLRTFGGGTKVEIKRTVAAPSVFIFPPSDEQLKSGTASVVCLLNNFYPREAKVQWKVDNALQSGNSQESVTEQDSKDSTYSLSSTLTLSKADYEKHKVYACEVTHQGLSSPVTKSFNRGEC
In the case of B2, the Kd in the assay with FcgRIIIa V was determined as 1.5 nM; with FcgRIa, 0.076 nM; with FcgRIIa R it was 350 nM; with FcgRIIa H, 110 nM; with FcgRIIb it was 1700 nM; with FcgRIIIa F, 6.3 nM.

B3: H240-FA030/H240-FB065/L73-k0 (antibody)
chain 1: QDQLVQSGAEVKKPGASVKVSCKASGFNIKDTYIQWVRQAPGQGLEWMGRIDPLRKQTKYREKFEGRVTITADTSTNTAYMELSSLRSEDTAVYYCVRSGREFDYWGQGTLVTVSSASTKGPSVFPLAPSSKSTSGGTAALGCLVKDYFPEPVTVSWNSGALTSGVHTFPAVLQSSGLYSLSSVVTVPSSSLGTKTYTCNVNHKPSNTKVDKKVEPKSCDKTHTCPPCPAPEYYWGPSVFLFPPKPKDTLMISRTPEVTCVVVDVSDEEPKVKFNWYVDGVEVHNAKTKPREEQYNATYRVVSVLTVLHQDWLNGKEYKCKVSNKALPAPIEKTISKAKGQPREPQVYTLPPSRKEMTKNQVSLTCLVKGFYPSDIAVEWESNGQPENNYKTTPPVLDSDGSFFLYSKLTVDKSRWQQGNVFSCSVMHEALHNRYTQKSLSLSP
chain 2: QDQLVQSGAEVKKPGASVKVSCKASGFNIKDTYIQWVRQAPGQGLEWMGRIDPLRKQTKYREKFEGRVTITADTSTNTAYMELSSLRSEDTAVYYCVRSGREFDYWGQGTLVTVSSASTKGPSVFPLAPSSKSTSESTAALGCLVKDYFPEPVTVSWNSGALTSGVHTFPAVLQSSGLYSLSSVVTVPSSNFGTQTYTCNVDHKPSNTKVDKTVEPKSCDKTHTCPPCPAPELLGGPSVFLFPPKPKDTLMISRTPEVTCVVVDVSHEEPEVQFNWYVDGVEVHNAETKPREEQYNSTYRVVSVLTVLHQDWLNGKEYKCKVSNDALPMPIEETISKAKGQPREPQVYTLPPSREEMTKNQVSLTCLVKGFYPSDIAVEWESNGQPENNYKTTPPVLDSDGSFFLYSKLTVDKSRWQQGNVFSCSVMHEALHNHYTQESLSLSP
chain 3: DIQMTQSPSSLSASVGDRVTITCRASQDIHKYIAWYQQKPGQAPRLLIQYTSTLQPGVPSRFSGSGSGTDYTFTISSLQPEDIATYYCLQYEQLRTFGGGTKVEIKRTVAAPSVFIFPPSDEQLKSGTASVVCLLNNFYPREAKVQWKVDNALQSGNSQESVTEQDSKDSTYSLSSTLTLSKADYEKHKVYACEVTHQGLSSPVTKSFNRGEC
B3: the Kd with FcgRIIIa V is 1.1 nM; with FcgRIa, 0.1 nM; with FcgRIIa R, 340 nM; with FcgRIIa H it was 99 nM; with FcgRIIb, 2400 nM; with FcgRIIIa F it was 4.6 nM.

B4: H240-FA009/H240-FB052/L73-k0 (antibody)
chain 1: QDQLVQSGAEVKKPGASVKVSCKASGFNIKDTYIQWVRQAPGQGLEWMGRIDPLRKQTKYREKFEGRVTITADTSTNTAYMELSSLRSEDTAVYYCVRSGREFDYWGQGTLVTVSSASTKGPSVFPLAPSSKSTSGGTAALGCLVKDYFPEPVTVSWNSGALTSGVHTFPAVLQSSGLYSLSSVVTVPSSSLGTKTYICNVNHKPSNTKVDKKVEPKSCDKTHTCPPCPAPEYYWGPSVFLFPPKPKDTLMISRTPEVTCVVVDVSDEEPEVKFNWYVDGVEVHNAKTKPREEQYNATYRVVSVLTVLHQDWLNGKEYKCKVSNKALPAPIEKTISKAKGQPREPQVYTLPPSRKEMTKNQVSLTCLVKGFYPSDIAVEWESNGQPENNYKTTPPVLDSDGSFFLYSKLTVDKSRWQQGNVFSCSVMHEALHNRYTQKSLSLSP
chain 2: QDQLVQSGAEVKKPGASVKVSCKASGFNIKDTYIQWVRQAPGQGLEWMGRIDPLRKQTKYREKFEGRVTITADTSTNTAYMELSSLRSEDTAVYYCVRSGREFDYWGQGTLVTVSSASTKGPSVFPLAPSSKSTSGGTAALGCLVKDYFPEPVTVSWNSGALTSGVHTFPAVLQSSGLYSLSSVVTVPSSSLGTQTYICNVNHKPSNTKVDKTVEPKSCDKTHTCPPCPAPELLGGPSVFLFPPKPKDTLMISRTPEVTCVVVDVSHEEPEVQFNWYVDGVEVHNAKTKPREEQYNSTYRVVSVLTVLHQDWLNGKEYKCKVSNDALPMPIEETISKAKGQPREPQVYTLPPSREEMTKNQVSLTCLVKGFYPSDIAVEWESNGQPENNYKTTPPVLDSDGSFFLYSKLTVDKSRWQQGNVFSCSVMHEALHNHYTQESLSLSP
chain 3: DIQMTQSPSSLSASVGDRVTITCRASQDIHKYIAWYQQKPGQAPRLLIQYTSTLQPGVPSRFSGSGSGTDYTFTISSLQPEDIATYYCLQYEQLRTFGGGTKVEIKRTVAAPSVFIFPPSDEQLKSGTASVVCLLNNFYPREAKVQWKVDNALQSGNSQESVTEQDSKDSTYSLSSTLTLSKADYEKHKVYACEVTHQGLSSPVTKSFNRGEC
Consider B4, for which the Kd worked out at 0.89 nM with FcgRIIIa V; 0.051 nM with FcgRIa; 270 nM with FcgRIIa R; 72 nM in the assay with FcgRIIa H; 1400 nM in the assay with FcgRIIb; 4.3 nM with FcgRIIIa F.
